One data set deals with AncSZ. The experiment in a line: phosphorylation enrichment, bacterial display (enrichment ratio); higher = better substrate or ligand; peptides without Tyr show the background.
The target in a further data set is EPHB1 (UniProt P54762). The data set is described as above.
Another data set concerns the target EPHB2 (UniProt P29323). The description is as above.
The target in a further data set is FGFR1 (UniProt P11362). Described as above.
The target of a further data set is FGFR3 (UniProt P22607). The description is as above.
Sequence of FGFR3 (P22607 whole entry, looked up): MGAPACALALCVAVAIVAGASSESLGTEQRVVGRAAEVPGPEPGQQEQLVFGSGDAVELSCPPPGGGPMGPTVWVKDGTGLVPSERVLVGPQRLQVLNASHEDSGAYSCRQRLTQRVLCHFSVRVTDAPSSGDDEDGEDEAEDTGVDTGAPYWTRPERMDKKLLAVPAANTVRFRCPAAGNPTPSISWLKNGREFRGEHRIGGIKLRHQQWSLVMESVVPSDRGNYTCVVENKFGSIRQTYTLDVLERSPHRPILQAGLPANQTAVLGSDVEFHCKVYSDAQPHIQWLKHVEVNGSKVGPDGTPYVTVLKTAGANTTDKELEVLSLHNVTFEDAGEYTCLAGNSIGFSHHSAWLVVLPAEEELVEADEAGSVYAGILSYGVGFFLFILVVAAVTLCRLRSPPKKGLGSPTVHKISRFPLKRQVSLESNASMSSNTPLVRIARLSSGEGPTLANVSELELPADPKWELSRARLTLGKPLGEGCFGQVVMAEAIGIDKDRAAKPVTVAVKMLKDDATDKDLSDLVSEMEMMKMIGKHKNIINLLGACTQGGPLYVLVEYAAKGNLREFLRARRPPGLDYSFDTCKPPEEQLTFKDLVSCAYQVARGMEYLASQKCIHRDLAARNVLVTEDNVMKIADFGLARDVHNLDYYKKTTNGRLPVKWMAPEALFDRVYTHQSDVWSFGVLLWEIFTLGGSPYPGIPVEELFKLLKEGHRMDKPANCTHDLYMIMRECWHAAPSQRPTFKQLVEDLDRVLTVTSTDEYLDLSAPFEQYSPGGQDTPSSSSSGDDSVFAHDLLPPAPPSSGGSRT
Another data set has as its system Fer (mouse). Described as above.
Another data set has as its target Fes (UniProt P07332). Described as above.
The next data set concerns the target Fyn (UniProt P06241). Described as above.
Another data set concerns the target Hck (UniProt P08631). Described as above.
The target of another data set is Jak2 (UniProt O60674). The data set is described as above.
A further data set concerns the target MERTK (UniProt Q12866). The data set is described as above.
A further data set deals with c-Abl (mouse). Described as above.
In a further data set the test system is c-Src. Described as above.
A further data set concerns the target Grb2 SH2 (UniProt P62993). The data set can be described thus: SH2 binding enrichment of the phosphorylated peptide, bacterial display (enrichment ratio); higher = better substrate or ligand; peptides without Tyr show the background.
The target of a further data set is SHP2-C SH2. The description is as above.
A further data set has as its target c-Src SH2. The data set is described as above.
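For SH2 binding enrichment of the phosphorylated peptide, bacterial display in this document: peptide library displayed on the E. coli surface as eCPX fusions, selected cells deep-sequenced, score is each peptide's frequency after selection divided by its frequency in the input.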
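For phosphorylation enrichment, bacterial display in this document: 11-residue human phosphosite peptides and single-mutation variants displayed on the E. coli surface, counted by deep sequencing, each peptide's frequency after selection divided by its frequency in the unselected input library; frequency after pTyr selection over input frequency; kinase dosed for 20-30% of maximal phosphorylation in three min.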

Sequence of EPHB1 (P54762 whole entry, looked up): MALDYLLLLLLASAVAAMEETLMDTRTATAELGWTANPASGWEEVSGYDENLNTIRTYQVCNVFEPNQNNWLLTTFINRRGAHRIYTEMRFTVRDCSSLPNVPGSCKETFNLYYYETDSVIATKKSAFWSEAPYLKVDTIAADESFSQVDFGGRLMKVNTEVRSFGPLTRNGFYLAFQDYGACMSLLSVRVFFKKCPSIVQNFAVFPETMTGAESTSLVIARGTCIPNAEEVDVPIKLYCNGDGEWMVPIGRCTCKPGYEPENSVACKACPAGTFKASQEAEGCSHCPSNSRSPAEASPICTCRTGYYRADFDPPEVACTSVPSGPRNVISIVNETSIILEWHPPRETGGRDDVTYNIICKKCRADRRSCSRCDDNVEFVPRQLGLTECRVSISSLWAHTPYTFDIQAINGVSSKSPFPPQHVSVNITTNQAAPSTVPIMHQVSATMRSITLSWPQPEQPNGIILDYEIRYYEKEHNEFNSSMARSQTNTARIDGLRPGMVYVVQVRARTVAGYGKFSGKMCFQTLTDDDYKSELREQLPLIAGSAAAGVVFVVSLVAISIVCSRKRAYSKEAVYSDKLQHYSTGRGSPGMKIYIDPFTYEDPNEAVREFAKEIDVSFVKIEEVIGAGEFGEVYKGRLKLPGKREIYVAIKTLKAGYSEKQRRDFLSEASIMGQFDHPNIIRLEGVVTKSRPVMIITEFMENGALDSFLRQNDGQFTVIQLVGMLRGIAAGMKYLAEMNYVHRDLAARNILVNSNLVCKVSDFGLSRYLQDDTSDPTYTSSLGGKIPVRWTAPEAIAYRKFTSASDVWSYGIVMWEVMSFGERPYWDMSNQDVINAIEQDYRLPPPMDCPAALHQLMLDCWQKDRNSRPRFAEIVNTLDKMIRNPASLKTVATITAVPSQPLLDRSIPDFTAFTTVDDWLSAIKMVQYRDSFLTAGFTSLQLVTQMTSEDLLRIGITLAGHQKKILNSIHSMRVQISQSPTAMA
Sequence of FGFR1 (P11362 whole entry, looked up): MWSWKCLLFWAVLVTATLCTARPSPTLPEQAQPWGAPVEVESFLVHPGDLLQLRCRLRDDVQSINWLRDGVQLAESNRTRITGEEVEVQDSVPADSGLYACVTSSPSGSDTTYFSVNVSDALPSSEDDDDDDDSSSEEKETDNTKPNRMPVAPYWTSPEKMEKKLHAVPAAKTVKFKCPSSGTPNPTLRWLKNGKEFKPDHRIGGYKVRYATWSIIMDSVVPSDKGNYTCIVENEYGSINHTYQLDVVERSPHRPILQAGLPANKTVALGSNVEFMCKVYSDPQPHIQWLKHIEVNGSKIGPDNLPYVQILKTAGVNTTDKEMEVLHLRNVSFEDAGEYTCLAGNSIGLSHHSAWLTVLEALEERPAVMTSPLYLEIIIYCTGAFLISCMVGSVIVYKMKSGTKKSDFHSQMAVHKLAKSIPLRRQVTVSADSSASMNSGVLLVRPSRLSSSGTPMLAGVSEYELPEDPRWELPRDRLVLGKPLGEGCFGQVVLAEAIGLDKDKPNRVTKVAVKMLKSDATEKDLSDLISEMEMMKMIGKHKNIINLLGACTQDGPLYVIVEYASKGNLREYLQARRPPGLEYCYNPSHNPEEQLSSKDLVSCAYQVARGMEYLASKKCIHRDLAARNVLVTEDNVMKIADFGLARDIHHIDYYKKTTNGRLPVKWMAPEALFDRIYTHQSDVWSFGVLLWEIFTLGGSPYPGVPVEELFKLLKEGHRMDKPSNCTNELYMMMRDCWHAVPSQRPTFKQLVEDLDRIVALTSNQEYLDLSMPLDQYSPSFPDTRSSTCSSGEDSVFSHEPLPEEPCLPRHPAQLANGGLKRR
Sequence of Hck (P08631 whole entry, looked up): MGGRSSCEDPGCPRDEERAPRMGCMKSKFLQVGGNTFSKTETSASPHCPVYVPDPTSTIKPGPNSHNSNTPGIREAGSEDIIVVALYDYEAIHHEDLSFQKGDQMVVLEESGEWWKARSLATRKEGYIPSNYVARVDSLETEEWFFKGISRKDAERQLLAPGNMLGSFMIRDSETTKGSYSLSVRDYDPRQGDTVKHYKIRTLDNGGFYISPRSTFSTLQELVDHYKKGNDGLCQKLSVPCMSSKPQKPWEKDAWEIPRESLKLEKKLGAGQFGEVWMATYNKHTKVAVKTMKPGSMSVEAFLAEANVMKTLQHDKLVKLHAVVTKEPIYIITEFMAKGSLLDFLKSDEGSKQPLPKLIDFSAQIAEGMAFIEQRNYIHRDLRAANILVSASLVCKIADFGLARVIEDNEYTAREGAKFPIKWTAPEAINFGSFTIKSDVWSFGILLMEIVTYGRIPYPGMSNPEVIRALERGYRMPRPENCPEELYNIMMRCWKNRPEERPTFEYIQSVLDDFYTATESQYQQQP
Sequence of MERTK (Q12866 whole entry, looked up): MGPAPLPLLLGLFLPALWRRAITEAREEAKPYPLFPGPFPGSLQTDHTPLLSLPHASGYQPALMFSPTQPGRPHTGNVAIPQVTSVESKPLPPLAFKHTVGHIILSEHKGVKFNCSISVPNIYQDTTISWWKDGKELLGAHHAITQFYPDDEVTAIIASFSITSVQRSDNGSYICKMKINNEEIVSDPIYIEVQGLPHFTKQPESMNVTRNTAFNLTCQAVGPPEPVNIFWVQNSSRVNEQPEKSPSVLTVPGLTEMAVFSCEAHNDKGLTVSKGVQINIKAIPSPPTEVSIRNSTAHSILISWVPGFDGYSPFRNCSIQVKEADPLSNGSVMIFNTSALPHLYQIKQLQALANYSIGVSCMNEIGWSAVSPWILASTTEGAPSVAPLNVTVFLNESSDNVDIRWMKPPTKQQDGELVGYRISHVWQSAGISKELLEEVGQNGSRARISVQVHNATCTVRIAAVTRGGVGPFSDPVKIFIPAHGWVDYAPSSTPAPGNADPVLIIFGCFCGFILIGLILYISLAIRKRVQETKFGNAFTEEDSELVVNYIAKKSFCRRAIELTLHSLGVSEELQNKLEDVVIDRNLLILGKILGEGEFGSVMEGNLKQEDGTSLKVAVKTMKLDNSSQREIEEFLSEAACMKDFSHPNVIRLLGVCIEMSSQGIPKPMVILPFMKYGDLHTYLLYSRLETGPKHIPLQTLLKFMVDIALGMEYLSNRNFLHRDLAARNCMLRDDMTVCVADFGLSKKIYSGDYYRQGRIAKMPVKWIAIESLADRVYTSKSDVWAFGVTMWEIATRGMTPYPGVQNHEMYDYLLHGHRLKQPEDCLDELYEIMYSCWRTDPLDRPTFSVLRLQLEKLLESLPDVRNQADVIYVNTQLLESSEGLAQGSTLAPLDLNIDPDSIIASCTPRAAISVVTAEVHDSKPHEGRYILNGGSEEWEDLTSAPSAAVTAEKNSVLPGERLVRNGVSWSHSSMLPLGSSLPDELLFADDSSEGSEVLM
Sequence of Fyn (P06241 whole entry, looked up): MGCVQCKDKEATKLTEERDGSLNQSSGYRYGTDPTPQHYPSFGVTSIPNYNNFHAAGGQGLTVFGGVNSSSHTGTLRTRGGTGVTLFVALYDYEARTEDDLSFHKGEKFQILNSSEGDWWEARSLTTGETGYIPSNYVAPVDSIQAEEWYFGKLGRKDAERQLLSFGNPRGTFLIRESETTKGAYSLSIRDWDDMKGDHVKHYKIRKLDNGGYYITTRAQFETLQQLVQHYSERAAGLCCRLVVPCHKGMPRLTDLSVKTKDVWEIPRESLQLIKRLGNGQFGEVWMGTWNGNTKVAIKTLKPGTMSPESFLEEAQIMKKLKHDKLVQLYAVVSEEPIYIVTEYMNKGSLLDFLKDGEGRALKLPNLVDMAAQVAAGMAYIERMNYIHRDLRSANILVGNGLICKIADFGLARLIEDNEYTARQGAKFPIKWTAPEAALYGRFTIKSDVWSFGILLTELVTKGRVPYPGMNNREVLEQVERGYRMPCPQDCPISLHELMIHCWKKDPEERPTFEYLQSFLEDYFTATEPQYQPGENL
Sequence of Grb2 SH2 (P62993 whole entry, looked up): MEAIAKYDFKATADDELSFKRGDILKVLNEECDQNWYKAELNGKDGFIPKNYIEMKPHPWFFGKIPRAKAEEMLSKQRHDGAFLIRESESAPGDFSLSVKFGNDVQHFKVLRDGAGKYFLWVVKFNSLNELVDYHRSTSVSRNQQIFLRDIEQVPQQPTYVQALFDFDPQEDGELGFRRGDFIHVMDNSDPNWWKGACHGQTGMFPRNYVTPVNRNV

Consider YTDPYYDYEIE [ZC3H18_Y372_A368T], for which the phosphorylation enrichment was 2.13 in the data set with AncSZ; 1.39 in the data set with EPHB1; 1.06 with EPHB2; 9.65 with FGFR1; 7.56 in the data set with FGFR3; 1.22 with Fer (mouse). For the same sequence, the phosphorylation enrichment in the data set with Fes came out at 1.27; with Fyn it was 1.96; in the data set with Hck, 0.967; with Jak2, 1.31; in the data set with MERTK, 1.31; in the data set on c-Abl (mouse), 0.871. Also, the phosphorylation enrichment in the data set with c-Src came to 2.94. Besides, the SH2 binding enrichment is 0.822 with Grb2 SH2, 0.494 with SHP2-C SH2 and 2.02 in the data set with c-Src SH2.

Consider YTTIHYNYMCN [TP53_Y234_C229Y], for which the phosphorylation enrichment stood at 1.43 in the data set on AncSZ; 1.81 with EPHB1; 0.897 with EPHB2; 4.5 in the data set with FGFR1; 3.35 with FGFR3; 2.08 in the data set on Fer (mouse). For the same sequence, the phosphorylation enrichment with Fes amounted to 1.16; in the data set with Fyn, 0.976; with Hck, 0.917; with Jak2, 1.26; with MERTK, 4.13; with c-Abl (mouse), 0.92. For the same sequence, the phosphorylation enrichment with c-Src amounted to 1.27. Also, the SH2 binding enrichment with Grb2 SH2 was 1; with SHP2-C SH2, 2.47; with c-Src SH2 it was 6.95.
